Here are results for 2 molecules from patent publication US20220380471A1.

Positions count from the first letter of the chain named.

For experiment [1], the target named is T1, mouse B7H3-His (mouse) (UniProt Q8VE98).
T1 sequence (looked up): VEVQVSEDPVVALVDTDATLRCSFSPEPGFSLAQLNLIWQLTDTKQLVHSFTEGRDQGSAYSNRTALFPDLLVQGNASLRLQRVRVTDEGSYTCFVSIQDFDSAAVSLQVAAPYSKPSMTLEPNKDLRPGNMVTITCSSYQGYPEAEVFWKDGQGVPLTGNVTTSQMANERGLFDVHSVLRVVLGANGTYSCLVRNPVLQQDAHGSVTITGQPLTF
The experiment in a line: phage ELISA, cross-species. Background: In an ELISA, binding on a coated surface is turned into a signal by an enzyme label.

For experiment [2], the target named is T1, mouse B7H3-His (mouse). The experiment in a line: ELISA; row Mouse-1 (msB7H3); well 3 of 3.
Experiment [3] addresses T1, mouse B7H3-His (mouse). As to the kind of experiment: ELISA; row Mouse-1 (msB7H3); well 1 of 3.
The target in experiment [4] is T1, mouse B7H3-His (mouse). As to the kind of experiment: ELISA; row Mouse-2 (mB7H3); well 1 of 3.
In experiment [5] the target is T1, mouse B7H3-His (mouse). As to the kind of experiment: ELISA; row Mouse-1 (msB7H3); well 2 of 3.
For experiment [6], the target named is T1, mouse B7H3-His (mouse). The experiment in a line: ELISA; row Mouse-2 (mB7H3); well 3 of 3.
The target in experiment [7] is T1, mouse B7H3-His (mouse). As to the kind of experiment: ELISA; row Mouse-2 (mB7H3); well 2 of 3.
Experiment [8] concerns the target T2, rat B7H3-His (rat) (UniProt Q7TPB4).
T2 sequence (looked up): T1 sequence (looked up) with A33R, S62A, N131D, V156L, L214M
The experiment in a line: phage ELISA, cross-species.

Experiment [9] deals with T2, rat B7H3-His (rat). The experiment in a line: ELISA; row Rat; well 2 of 3.
For experiment [10], the target named is T2, rat B7H3-His (rat). The experiment in a line: ELISA; row Rat; well 1 of 3.
Experiment [11] has as its target T2, rat B7H3-His (rat). As to the kind of experiment: ELISA; row Rat; well 3 of 3.
For experiment [12], the target named is T2, rat B7H3-His (rat). The experiment in a line: ELISA, purified VHH.

B1: RWB12 (VHH)
VHH: QVQLVESGGGSVQVGGSLRLSCAASGFTYNSYSVGWFRQAPGKEREGVAAINSGGSSTYYAASVKGRFTISRDNAKNTVYLQMNSLKPEDTAMYYCAARSPSPLTFQTRTLREDSYNYWGQGTQVTVSS
B1 displayed an ELISA signal in experiment [1] of 1.71. Also, the ELISA reading (name not given) in [2] stood at 0.0702; in experiment [3], 0.0714; in experiment [4], 0.0742; in experiment [5], 0.0683; in experiment [6], 0.0764; in [7], 0.0771.

B2: RWC4 (VHH)
VHH: EVQLVESGGGSVQAGGSLRLSCVASEDSTSAMCMGWFRQAPGKEREGVACINPTGEVTWYGDSVKGRFTISRDTVKKIVYLQMNSLKPEDTAMYYCAARVTYGGDWSTDTDYEYWGQGTQVTVSS
Turning to B2, the ELISA signal in experiment [1] stood at 0.366; in experiment [8] it was 0.797; in experiment [12] it was 0.158. Further, the ELISA reading (name not given) was 0.0488 in experiment [2]; 0.0616 in experiment [3]; 0.079 in experiment [4]; 0.0688 in experiment [9]; 0.0533 in [5]; 0.0683 in experiment [10]. For the same molecule, the ELISA reading (name not given) in experiment [11] worked out at 0.0685; in experiment [6], 0.0468; in experiment [7], 0.0498.
